Reference: patent US8383581B2, “Short-chain peptides as parathyroid hormone (PTH) receptor agonist” (Cadila Healthcare Limited, priority 2009, dated 2013)
Where no end group is shown, it is not given here. [ ]: non-standard residue; d: D form. Bip(2'-Et-4'-OMe) = CCc1cc(OC)ccc1-c1ccc(C[C@H](N)C(=O)O)cc1; Arg(NO2) = N=C(NCCC[C@H](N)C(=O)O)N[N+](=O)[O-]; αMePhe(2,6-F2) = C[C@](N)(Cc1c(F)cccc1F)C(=O)O; αMePhe(2-F) = C[C@](N)(Cc1ccccc1F)C(=O)O; hhPhe = N[C@@H](CCCc1ccccc1)C(=O)O; hArg = N=C(N)NCCCC[C@H](N)C(=O)O; hCit = NC(=O)NCCCC[C@H](N)C(=O)O; αMeF = C[C@](N)(Cc1ccccc1)C(=O)O; Cit = NC(=O)NCCC[C@H](N)C(=O)O; Nle = CCCC[C@H](N)C(=O)O; Ac5c = NC1(C(=O)O)CCCC1; Ac3c = NC1(C(=O)O)CC1; Aib = CC(C)(N)C(=O)O

T1: rat PTH-1R (rat PTHR endogenously expressed on UMR-106 rat osteosarcoma cells) (rat, UniProt P25961 27-591)
T1 sequence (looked up): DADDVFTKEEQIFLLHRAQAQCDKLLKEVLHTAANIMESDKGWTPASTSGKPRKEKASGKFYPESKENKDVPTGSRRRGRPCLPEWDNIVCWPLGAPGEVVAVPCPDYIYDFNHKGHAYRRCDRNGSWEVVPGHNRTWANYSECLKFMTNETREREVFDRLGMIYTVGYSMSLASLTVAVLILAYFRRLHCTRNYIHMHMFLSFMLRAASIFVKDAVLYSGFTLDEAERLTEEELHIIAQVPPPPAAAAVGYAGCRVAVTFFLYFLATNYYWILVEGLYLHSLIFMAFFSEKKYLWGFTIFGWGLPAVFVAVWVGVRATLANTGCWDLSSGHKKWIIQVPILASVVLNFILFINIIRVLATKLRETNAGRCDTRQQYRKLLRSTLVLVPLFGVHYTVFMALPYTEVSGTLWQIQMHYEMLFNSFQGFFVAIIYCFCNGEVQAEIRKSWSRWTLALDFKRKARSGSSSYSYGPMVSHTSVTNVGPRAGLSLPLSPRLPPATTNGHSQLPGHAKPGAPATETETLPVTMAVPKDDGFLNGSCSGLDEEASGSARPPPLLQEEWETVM


The binders below were run against T1, rat PTH-1R (rat PTHR endogenously …) (assay: cell-based or functional assay).

cAMP released with respect to control, 1 nM peptide, UMR-106 cells | cAMP released with respect to control, 10 nM peptide, UMR-106 cells | cAMP released with respect to control, 100 nM peptide, UMR-106 cells | Binder
38 percent of control | 98 percent of control | 116 percent of control | [Aib]V[Aib]EIQ[αMePhe(2-F)][Nle]HQ[Aib]A[Aib][αMePhe(2-F)] [Seq. ID. 553]
41 percent of control | 97 percent of control | 100 percent of control | SVSEIQLMHNLGKHLNSMERVEWLRKKLQDVHNF [PTH (1-34)]
48 percent of control | 99 percent of control | 112 percent of control | [Ac5c]V[Aib]EIQ[αMePhe(2,6-F2)][Nle]HQ[αMePhe(2,6-F2)]A[Cit][αMePhe(2-F)] [Seq. ID. 479]
21 percent of control | 51 percent of control | 69 percent of control | [Aib]V[Aib]EIQ[αMePhe(2-F)][Nle]HQ[αMePhe(2,6-F2)]A[Arg(NO2)][αMePhe(2-F)] [Seq. ID. 521]
34 percent of control | 82 percent of control | 104 percent of control | [Aib]V[Aib]EIQ[αMePhe(2,6-F2)][Nle]HQ[αMePhe(2,6-F2)][Aib][Cit][αMePhe(2,6-F2)] [Seq. ID. 486]
79 percent of control | 111 percent of control | 121 percent of control | [Ac5c]V[Aib]EIQLMHQ[hArg][Aib]K[αMeF] [Seq. ID. 20]
16 percent of control | 57 percent of control | 75 percent of control | [Ac5c]V[Aib]EIQ[αMePhe(2-F)][Nle]HQ[Aib][Aib][Cit][αMePhe(2-F)] [Seq. ID. 540]
38 percent of control | 79 percent of control | 119 percent of control | [Aib]V[Aib]EIQ[αMePhe(2,6-F2)][Nle]HQ[Aib][Aib][Arg(NO2)][αMePhe(2,6-F2)] [Seq. ID. 598]
19 percent of control | 64 percent of control | 80 percent of control | [Aib]V[Aib]EIQ[αMePhe(2-F)][Nle]HQ[αMePhe(2,6-F2)][Aib][αMePhe(2,6-F2)][αMePhe(2,6-F2)] [Seq. ID. 514]
39 percent of control | 101 percent of control | 120 percent of control | [Ac3c]V[Ac3c]EIQLMHQ[hArg]AK[Bip(2'-Et-4'-OMe)][hhPhe] [Seq. ID. 609]
36 percent of control | 88 percent of control | 116 percent of control | [Aib]V[Aib]EIQ[αMePhe(2,6-F2)][Nle]HQ[hCit][Aib][Arg(NO2)][αMePhe(2,6-F2)] [Seq. ID. 470]
28 percent of control | 71 percent of control | 87 percent of control | [Aib]V[Aib]EIQ[αMePhe(2,6-F2)][Nle]HQ[αMePhe(2,6-F2)]A[Aib][αMePhe(2,6-F2)] [Seq. ID. 501]
